assay: soluble on expression in E. coli; label from the status in PepcDB or PDB records

| Sequence | soluble on expression in E. coli |
| --- | --- |
| MSLDDLLKEVLKDKRLLEVLRHLKRANVDYGKSIMLNTKIPLTEVLDVLDKLESLGLIERVTGATLKNTEAKFKLSQEVHKHHTYYRLTRDGDHLLRRLDEKDIIDAYAEIVKDDEVGLKLLYYAEELHSDHALTYSKLLRKPLEEITPKIEELERMGLMEEKNSKVIKFRERRAKPEGHHHHHH | not soluble |
| MKSMPTISRIQRIKEYLSKRKLSQRRKVGVLVDGPNMLRKEFNINLKEIREILSEYGDIKIAKVFLNQYATEKLVEAIENQGFEPIVTSGDVDVRMAVEAMELIYNDSIDAVALVTRDADFKAVLMKAMEMGKETIIIGAEPGFSTALKNSADIAIVLNEDEEKEKGDADEEEIIEV | not soluble |
| QDLTLSFNHIKSAVIYSAYPLTDKQVGELVQMLNKRFDSELKISVEIEPELIGGIKVEVGDQVLDLSVQGKLSALYTTMTN | not soluble |
| MGSDKIHHHHHHMKHGGFSAASEAENISKSKLSRRIIDLENKFNVSLIQRTTRHFKVTDLGQEFYEECCKVIAQVECAENVLLKQKSEPQGLVKVSCPPLMMHFQIRKILNQFLKTYPKVEISLELTSRRVDILHDDIDLAIRTNFEPNEDSNLIVRDVIKTDHCLVASPELLQGRTIKHYSELQDFPSISLGTQKQNYIWHLCNIRNGESVDVPYQPRIKSNDLAGVYYAVMDGLGIADLPFLTVESEIRKGTLVHILPDWKSNIGMLQLVYVSRKGQRLVVEKLIETLIDELRRLPESHEGYLPT | not soluble |
| RKADEGKWQLVGGDIQNAIVQNICMMDDNKIACEVFGTPNGVDGRTRVCVSDASVFDFEWYEDEIYGGLIFDTFFYSPWDKLLYAKFGGIMLRSKESFITSFISPTVVQGVDVYTLAGKIRIESETPVSEVLLFDLAGRMVLRQTIDNKIYSDIDTNGLKRSGIYVVSVRLSSGQVFSHKVQV | not soluble |
| MLPEKRLLTPDDMKLWEESPTRAHFTKFIIDLAESVKGHENSQYKEPISESINSMMNLLSQIKDITQKHPVIKDADSSRFGKVEFRDFYDEVSRNSRKILRSEFPSLTDEQLEQLSIYLDESWGNKRRIDYGSGHELNFMCLLYGLYSYGIFNLSNDSTNLVLKVFIEYLKIMRILETKYWLEPAGSHGVWGLDDYHFLPFLFGAFQLTTHKHLKPISIHNNELVEMFAHRYLYFGCIAFINKVKSSASLRWHSPMLDDISGVKTWSKVAEGMIKMYKAEVLSKLPIMQHFYFSEFLPCPDGVSPPRGHIHDGTDKDDECNFEGHVHTTWGDCCGIKLPSAIAATEMNKKHHKPIPFD | soluble |
| MKFFDREREINEILHILNREPDDIYFIYGPLNSGKTALIKHIIENKLSDDYKVFYINFRTYLISEKREFIEAIFTTKKDDFFEKIKDKDEVLNLITKGVRILTGIPIPEVEFDKLFEEKINDAFQYLNSLLLEVKKSGKKPILIFDELQMIKDVVLNTENQRFSAFPSLRFGNGQKYLLKELFQFLVSLTKEQHLCHVFCLSSDSLFIEYVYSTGELEGRAKYLLVDDFDKETALKFMDFLAVENNINLTNEDKELIYSYVGGKPKDIKYVVEESKFKDLREILEFMLKDAVQKLDMFLDMLNYSKPKVDVGDEVIEIKKDNVIEALKLFKDEYEVSKKHIPVPVYTYLIKRNILFLNPIEGILKPQSYLVWNAIKRLL | not soluble |
| MAESPSQSDAQLVAHQSPGQQADSDLTSLVFDYKSVLCVYFFSHLLTVLKTNAIAEMSQQVQMGMENMLKMVYEIDQNSVGIKEEIEKSKDFAMEKKRILEEEKDQFQKAAYTILDMLSNSRG | soluble |
| MVAPETERIRTQIRVYLLVEDLQRQFAAYLGTPTRARGYPPYEGEHALIVEVSPALAIERVIDLALRAVPGVQPGILYVERQFGVLEIHSASLDEVRRAGEAILAGTGNRAEDQLRPRVLFHDIITDITDQHAVILNRNRQASMILPGQSLLVYEMTPALFAAVAANEAERVAPGLTVVDVQMIGAAGRLYIGGSTDEVTVARDHITTVLSAIEGQEH | not soluble |
| MGSDKIHHHHHHMRCSPCRMQQAHTPPHSAKSIKHDVKRRIILDAARRMFAHDGAGSVSMRNLAREVGCSAAVLYRYFGSRESILWELRCEGIVLLNDALMGAADAADPLLRLQQLGRAYVSFGIDNLEYYELMFRTPFYEFDAGSLPDGLPDDALVLLHSTAAECLELGYFAGSDVTTVVSSMWSLVHGLVSLILNGRAPLMMGALDTHAMIDRVPDFIAGLARAARGGI | not soluble |
| MGSDKIHHHHHHMKKSKHISQSELESYLWGAATLLRGYIDAGDYKQFIFPLLFYKRLCDVYDEELADALEESGGDQEYAALPEQHRFQIPEDAHWKATRTKVKNVGKAIQDALRAIETANPDTLYGVFGDAQWTNKDRLPDRMLRELIEHFSSQTLSLSNCPEDELGVGYEFLIKKFADDSGHTAAEFYTNRTVVHLMTEMLEPKPGESIYDPTCGSAGMLLSAVAHLKRQNKEWRNLRLFGQERNLLTSAIGRMNLFLHGIEDFRIVRGDTLANPAFVEGDRLMQFDVVLANPPYSIKQWDRDAWSADPWGRNIYGTPPQGRADYAFWQHIIKSMKAKSGRCAILFPHGVLFRNEESAMREKLVAHDVVECVLGLGPNLFYNSPMEACVVICRMNKPKERRNKVLFINAVNEVTRERAQSFLTDDHIQRIVAAYQAFGDEDGFARVVGNDEIREKASNLSIPLYVRAENGNGNGNGSTETVSLKQAIANWQESSMALRESMDGLLSSLEGGLHGS | not soluble |
| MEIGQRVRINFEVATVRYIGEVDGYGSQRWVGLEWDDPTRGKHDGIVRGKRYFQTRHPNGGSLMKHEIVPKPTDLLFEIKDRYIEEESVETEIELAQSNKKIELIGMDQTAAKQSNIEKLINIVLDNRSVGFPPSSDSPQFILCRELNLYGNLLYKWKTVRQILEYFPRIQELNLRRNRMQCFNEEEDDDESEGDDHVYSDSCKKLVISECNLSENSIDSILLRFPSTSDVVAFGNDLTRFSVSEAVSSRLTSLDLEDNPFKTLDSIHGTFPNLTQLSVANCGITSLNGFDGSIKFPKLEYLNIKRNSIVEWKSVNSIRSLKSLKRLLFDCKKLSTEKGVHAYEIVIAKLSTLIDLNRFDVSEVERRSAEIRFLNKYAGLNDNEDHQDDIKRLIEIHGEPTLDTAKKGLAVVKIRIECGNRVETRRLPLGMSIQKIRDMLARLFKVPNTSKIRLYLVMSEKAKQHRIELENPLREFGHYSPSEDRDILVVEHD | not soluble |
| LGLWPVHRLSEEARRISPRQLSQRLQLSPLPAELRELVGAFNGALDRLEQAYVRLESFNADVAHELRTPLTNLIGQTQVALSRERSGEHYEEVLQSNLEELERLRAIVNDMLFLARADQGRLACEREETSLAGEIATTVDFLEVIFDEAGVGIEVRGEARALVERALFQRAVTNLLYNAAQHTAAGGTLRVGVERRGDEVRVAVSNPGVPIADEHRRHLFERFYRVDAARSNSEANHGLGLSIVKAVASMHGGSVFVDSADGWNTFGFTVLSPERRGPGDR | not soluble |
| MNAWEVNFDGLVGLTHHYAGLSFGNEASTRHRFQVSNPRLAAKQGLLKMKALADAGFPQAVIPPHERPFIPVLRQLGFSGSDEQVLEKVARQAPHWLSSVSSASPMWVANAATIAPSADTLDGKVHLTVANLNNKFHRSLEAPVTESLLKAIFNDEEKFSVHSALPQVALLGDEGAANHNRLGGHYGEPGMQLFVYGREEGNDTRPSRYPARQTREASEAVARLNQVNPQQVIFAQQNPDVIDQGVFHNDVIAVSNRQVLFCHQQAFARQSQLLANLRARVNGFMAIEVPATQVSVSDTVSTYLFNSQLLSRDDGSMMLVLPQECREHAGVWGYLNELLAADNPISELKVFDLRESMANGGGPACLRLRVVLTEEERRAVNPAVMMNDTLFNALNDWVDRYYRDRLTAADLADPQLLREGREALDVLSQLLNLGSVYPFQREGGGNG | soluble |
| AHHHHHHGSKVVALLSSGIDSPVAIHLMASRGVEVYPLHFRQDEVKERKVRKVVKKLQEIHGEKVKDPHTVNAYEVQAPVFEKLKEIKKGKWTCVFCKYTMYIVAESYAKKVGASAIITGDSLGQVASQTLDNLLVISTATKLPVIRPLIGLDKEEIVKIAKEIGTFEISIEEEPPCPFVPKFPVVRAGLGEFQKILSQVKDKLPRGDL | soluble |
| MGSDKIHHHHHHMRFGWLEQPFTTLEQLDSLFEIHSPRKFTFADSFYAHENGRHFIFFEEVDDQHPVGFLSVLEVFKDGTYTPPETILKLDYHLSYPCVFKIDSTWYMIPESSANKTIELWKCTDFPMKWEKHSNLMENIEAVDSTPFYHEGLWYLFTSTRRDCKKFGDRLDLFFTEDILNPNWQEHPMNPACRGSQQFRMAGKPFIYKGQLVRPSQDSLKRYGGNIELKAITQLSPAAYEEKLLEVVLPDWNQADDGCHTINVEDNFVVLDAIRLTPKNN | not soluble |
| RWQEGNRITLLENGDQYYPALFAAIGRASRRVILESFIWFEDEVGRRLHAVLLEAARRGIQVEVLLDGYGSPDLSDEFVGELTAAGVIFRYYDPRPKLMGMRTNLFRRMHRKIVVIDDTTAFVGGINYSAEHMSDYGPEAKQDYAVQVEGPVVLDILQFELENLPNSETARRWWRRRRH | not soluble |
| QEQAVILRFGKYYETVGPGLNFYFPPIDKRFQENVTRERAYSKQGQMLTEDENIVEVPLTVQYKISNLQDFVLNVDQPEVSLQQATESALRHVAGSTTMDRILTEGREQMATEVRERLQRFLDTYRTGITVTQVNIQSAQAPREVQEAFDDVIRAREDEQREKNQAEAYANGVVPEARGQAQRIIEEANGYRDEVISRAQGEADRFSKLLVEYRKAPEVTRERLYLDTMQEVFSQTSKVLVTGQQGQNNLLYLPLDKMIDGRNAAPATGAGASAGGGSASASDLGSRIVNDLRQQDARTRESR | not soluble |
| MHHHHHHLVPRGSMLDFEKPLFEIRNKIESLKESQDKNDVDLQEEIDMLEASLERETKKIYTNLKPWDRVQIARLQERPTTLDYIPYIFDSFMELHGDRNFRDDPAMIGGIGFLNGRAVTVIGQQRGKDTKDNIYRNFGMAHPEGYRKALRLMKQAEKFNRPIFTFIDTKGAYPGKAAEERGQSESIATNLIEMASLKVPVIAIVIGEGGSGGALGIGIANKVLMLENSTYSVISPEGAAALLWKDSNLAKIAAETMKITAHDIKQLGIIDDVISEPLGGAHKDIEQQALAIKSAFVAQLDSLESLSRDEIANDRFEKFRNIGSYIE | soluble |
| MDTWKVGPVELKSRLILGSGKYEDFGVMREAIAAAKAEVVTVSVRRVELKAPGHVGLLEALEGVRLLPNTAGARTAEEAVRLARLGRLLTGERWVKLEVIPDPTYLLPDPLETLKAAERLIEEDFLVLPYMGPDLVLAKRLAALGTATVMPLAAPIGSGWGVRTRALLELFAREKASLPPVVVDAGLGLPSHAAEVMELGLDAVLVNTAIAEAQDPPAMAEAFRLAVEAGRKAYLAGPMRPREAASPSSPVEGVPFTPTGPRPGRGPQ | soluble |

— the DeepSol protein solubility set
